{"source": "patent US20260055190A1", "about": "“ANTIBODIES FOR PLATELET FCyRIIA AND RELATED METHODS OF USE” (UNIVERSITY OF VERMONT AND STATE AGRICULTURAL COLLEGE, priority 2022, published 2026)", "molecules": {"B1": {"name": "Antibody FcYRIIa-5G1 (antibody, V domains shown)", "VH": "EVQLQESGPELVKPGASVKISCKASGYTFTTYYIHWVKQRPGQGLEWIGWIFPGSSNTFYNEKFKGKATLTADTSAITAYMQLNSLTSEDSAVYFCSRYYYDYGYWGQGTLVTVSA", "VL": "ENVLTQSPAIMSASPGEKVTMTCSASSSVRYMQWYQQKSNTSPKLWIYDTSKLASGVPGRFSGSGSGNSYFLTISSMEAEDVATYHCFQGSGYPLTFGGGTKLEIK", "notes": "Monoclonal antibody from a mouse hybridoma; Fluorochrome (phycoerythrin) labelled for flow cytometry; also called 5G1 antibody; 5G1-PE"}, "B2": {"name": "FcYRIIa-5G1: monoclonal antibody binding FcγRIIa; heavy chain SEQ ID NO 4, light chain SEQ ID NO 9 (antibody, V domains shown)", "VH": "B1 VH", "VL": "B1 VL"}, "B3": {"name": "Antibody FcYRIIa-11F9 (antibody, V domains shown)", "VH": "EVQLQESGPELVKPGASVRISCKASGYTFTNSYMHWVKQRPGQGLEWIGWIYPENINTYYNEKFKGKATLTADRSSSTAYMQLNSLASEDSAVYFCARFYYGFGYWGQGTTLTVSS", "VL": "DIVMTQSHKFMSTSVGDRVIITCKASQNVISAVAWYQQKPGHSPKLLIYWASTRHTGVPDRFTGSGSGTDFTLTINSVQSEDLADYFCQQYGRYPYTFAGGTKLEIK", "notes": "Monoclonal antibody from a mouse hybridoma; also called 11F9 antibody"}}, "key": {"FcγRIIa": {"test_system": "FcγRIIa", "test": "Phosphorylation of FcγRIIa during platelet activation (immunoprecipitation, Western blot with anti-phosphotyrosine 4G10)", "format": "cell-based, human", "description": "FIGS. 1A-1E are western blots and graphs showing that platelet activation results in FcγRIIa being phosphorylated: Platelets (2×10^8 in 0.5 ml) from low-risk subjects isolated with the use of gel filtration were exposed to no agonist (FIG. 1E) or to thrombin (50 nM) (FIG. 1A), convulxin (10 ng/ml) (FIG. 1B), ADP (25 μM) (FIG. 1C), and PAF (100 nM) (FIG. 1D) for selected intervals before preparation of platelet lysates. FcγRIIa was separated by immunoprecipitation and Western blots were probed with an antiphosphotyrosine antibody (4G10), stripped, and re-probed with anti-FcγRIIa to confirm equal loading (data not shown). Fluorescence intensity of bands was quantified with the use of a Li-Cor system. Results (n=3-5 for each condition) are peak intensity that is not altered by adjusting the contrast of the image or the size of the area of interest, and were compared with those obtained when no agonist was used (Student's t test, *p<0.05, **p<0.01). […]\nImmunoprecipitation was performed overnight at 4° C. with the use of goat anti-CD32A/C (Santa Cruz Biotechnology, Santa Cruz, Calif.) or a mouse anti-phosphotyrosine conjugated with magnetic beads (4G10, Millipore, Billerica, Mass.). […] Bands were detected with the use of use of a Li-Cor Odyssey Infrared Imaging system (Li-Cor Biosciences, Lincoln, Nebr.) or chemiluminescence (Amersham/General Electric Healthcare, Piscataway, N.J.)."}, "Megakaryocyte cell line": {"test_system": "Megakaryocyte cell line", "test": "IFNγ effect on FcγRIIa expression by megakaryocyte cell line", "format": "cell-based", "conditions": "IFNγ treatment, FIG. 10", "excerpt": "The graphs on the lower aspect of the figure show evidence of differentiation of the stem cells into megakaryocytes."}, "[1]": {"test_system": "human stem cell derived Megakaryocytes", "test": "IFNγ effect on FcγRIIa expression by human stem cell derived megakaryocytes", "format": "cell-based", "conditions": "IFNγ treatment, FIG. 11", "excerpt": "The graphs on the lower aspect of the figure show evidence of differentiation of the cells into megakaryocytes."}, "[2]": {"target": "FcγRIIa on non-fixed human platelets (also as present in platelet lysates) (human) (UniProt P12318)", "test": "cell-based or functional assay"}, "[3]": {"target": "T1, FcγRIIa on formaldehyde-fixed human platelets (human, UniProt P12318 34-317, exposed to formaldehyde fixative (residues not stated))", "T1 construct": "Same receptor as m3, but on platelets fixed before exposure to the antibody; also called FcγRIIa on fixed platelets", "T1 sequence": "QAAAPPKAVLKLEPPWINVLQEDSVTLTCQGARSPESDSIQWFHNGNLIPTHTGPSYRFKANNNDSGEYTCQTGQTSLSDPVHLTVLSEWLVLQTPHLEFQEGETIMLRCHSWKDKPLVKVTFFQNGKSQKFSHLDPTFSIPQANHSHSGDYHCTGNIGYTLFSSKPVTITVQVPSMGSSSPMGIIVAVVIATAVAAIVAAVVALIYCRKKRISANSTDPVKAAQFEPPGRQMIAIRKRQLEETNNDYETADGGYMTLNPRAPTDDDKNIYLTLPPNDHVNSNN", "test": "platelets of two subjects, fixed (FIG. 29)"}, "[4]": {"target": "T2, FcγRIIa on non-fixed human platelets (also as present in platelet lysates) (human, UniProt P12318 34-317)", "T2 construct": "Endogenous receptor of platelets from human subjects; In immunoprecipitation experiments the receptor came from platelet lysates; also called platelet FcγRIIa; CD32", "T2 sequence": "T1 sequence", "test": "platelets of two subjects, non-fixed (FIG. 29)"}, "FcγRIIa on platelets": {"target": "T3, FcγRIIa on platelets (Homo sapiens, UniProt P12318)", "T3 construct": "endogenous in cells; host or cells: platelets from subjects' blood samples, formaldehyde-fixed or non-fixed", "T3 sequence (P12318 34-317)": "T1 sequence with G54Q", "test": "Flow cytometry binding/quantification of FcγRIIa on fixed and non-fixed platelets", "conditions": "FIG. 29", "excerpt": "One objective was to identify an antibody that was capable of quantifying FcγRIIa on the surface of platelets that were fixed, similar to quantification of FcγRIIa on non-fixed platelets. To make this assessment, selected antibodies were fluorochrome labeled. An objective was to identify a clone that could quantify FcγRIIa on the surface of fixed platelets within 10% of the quantification of previously-known antibodies on non-fixed platelets. Based on these experiments, two clones were identified, they produced the antibodies FcYRIIa-5G1 and FcYRIIa-11F9 described above.\nLysis of red blood cells can also be performed by the addition of 3% acetic acid (120 μl) to 5 μl of blood. • Incubate for 15 minutes • Add 800 μl PBS • Centrifuge for 2 minutes at 1,200 g • Decant liquid • Re-suspend platelet pellet in 1,000 μl PBS • Centrifuge for 2 minutes at 1,200 g • Decant liquid • Re-suspend platelet pellet in 1,000 μl PBS • Centrifuge for 2 minutes at 1,200 g • Re-suspend platelet pellet in 800 μl PBS with 0.2% BSA and store platelets at room temperature for at least 1 hour before assay (blocking step) • Assay tube final volume=35 μl, adding: • 5 μl of re-suspended platelet • 0.5 μg of 5G1-PE antibody • 2 μl of CD42bPECy5 (Becton Dickinson) • QS with PBS/BSA 0.2% • Incubate antibodies and platelets for 1 hours at room temperature • Dilute with 500 μl of PBS • Analyze with flow cytometry\n• Analyze platelet samples using template 032522 FCquant 5G1R-PE 375V_T. Set acquisition volume to 200 ul and run samples at 200 ul/min. count 10,000 events in platelet gate (CD42b positive events). • Platelets are first gated on a FSC SSC plot • A second gate for CD42b PECY5 positive events is created • A histogram plot gated on the CD42b positive events is created. A gate is set to the right of a non-immune IgG control. The x-mean of the histogram gate positive for 5G1R-PE binding is reported • Assay tube for IgG control, adding: • 5 μl of re-suspended platelet • 2 μl of IgG-PE • 2 μl of CD42bPECy5 (Becton Dickinson) • 26 μl PBS/BSA 0.2% […]"}, "[5]": {"target": "T2, FcγRIIa on non-fixed human platelets …", "test": "immunoprecipitation with platelet lysates"}, "[6]": {"target": "T1, FcγRIIa on formaldehyde-fixed human …", "test": "fluorochrome labeled antibody on fixed platelets"}}, "note": "Where a chain is given by its changes, count along the chain named. Entries after “also recorded” stand apart in the source; their conditions may differ."}
{"molecule": "CC(C)(C)n1nc(-c2ccc(Cl)cc2)c2c(N)ncnc21", "note": "[PP2]", "values": [{"measurement": "phosphorylation of FcγRIIa during platelet activation", "setting": "FcγRIIa; IV.3 Fab 100 μg/ml, PP2 20 μM", "value": "prevented phosphorylation of FcγRIIa"}]}
{"molecule": "IFNγ: cytokine that increases FcγRIIa expression by megakaryocytes", "values": [{"measurement": "expression of FcγRIIa by Megakaryocyte cell line", "setting": "Megakaryocyte cell line", "value": "increases the expression of FcγRIIa"}, {"measurement": "expression of FcγRIIa by human stem cell derived Megakaryocytes", "setting": "[1]", "value": "increases the expression of FcγRIIa"}]}
{"molecule": "fibrinogen (from UniProt P02671 20-629; P02675 31-491; P02679 27-437)", "values": [{"measurement": "ADP induced activation of platelets (surface expression of P-selectin), fold induction", "setting": "[2]", "value": 1.5, "unit": "fold"}]}
{"molecule": "Nc1ncnc2c1ncn2[C@@H]1O[C@H](COP(=O)(O)OP(=O)(O)O)[C@@H](O)[C@H]1O", "note": "[ADP, adenosine diphosphate]", "values": [{"measurement": "time after exposure at which phosphorylation of FcγRIIa was greatest", "setting": "FcγRIIa; platelets from low-risk subjects, thrombin 50 nM, convulxin 10 ng/ml, ADP 25 μM, PAF 100 nM", "value": "3 to 5", "unit": "min"}]}
{"molecule": "CCCCS(=O)(=O)N[C@@H](Cc1ccc(OCCCCC2CCNCC2)cc1)C(=O)O", "note": "[tirofiban]", "values": [{"measurement": "agonist-induced activation of platelets", "setting": "platelets; agonists thrombin, convulxin, ADP, PAF, PAC-1 binding or P-selectin, IV.3 100 μg/ml, PP2 20 μM, tirofiban 0.5 μg/ml", "value": "did not attenuate the activation of platelets"}, {"measurement": "activation of platelets caused by coagulation Factor XIII", "setting": "platelets; summary in words", "value": "abolished"}, {"measurement": "amplification of platelet activation induced by fibrinogen", "setting": "platelets; summary in words", "value": "not by tirofiban"}, {"measurement": "binding of PAC-1 to platelets", "setting": "platelets; tirofiban 0.5 μg/ml", "value": "blocked completely the binding of PAC-1 to platelets; also recorded: abolished binding of PAC-1 to platelets"}, {"measurement": "agonist-induced surface expression of P-selectin", "setting": "platelets; tirofiban, n=3 subjects, FIG. 5D", "value": "did not attenuate agonist-induced P-selectin expression"}]}
{"molecule": "coagulation Factor XIII (from UniProt P00488 2-732) (enzyme)", "values": [{"measurement": "ADP-induced activation of platelets (surface expression of P-selectin), fold induction", "setting": "[2]", "value": 3.9, "unit": "fold"}]}
{"molecule": "Fab fragment of IV.3", "values": [{"measurement": "ADP induced activation of platelets with added fibrinogen after pretreatment with IV.3 (100 µg/ml), fold induction", "setting": "[2]", "value": 0.9, "unit": "fold"}, {"measurement": "ADP-induced activation of platelets with added Factor XIII after pretreatment with IV.3 (100 µg/ml), fold induction", "setting": "[2]", "value": 0.7, "unit": "fold"}]}
{"molecule": "B1", "values": [{"measurement": "binding result", "setting": "[3]", "value": "binds"}, {"measurement": "binding result", "setting": "[4]", "value": "binds"}]}
{"molecule": "B2", "values": [{"measurement": "binding to FcγRIIa on fixed platelets compared with non-fixed platelets", "setting": "FcγRIIa on platelets", "value": "binds to a greater extent to FcγRIIa on fixed platelets"}, {"measurement": "binding to FcγRIIa on fixed platelets", "setting": "FcγRIIa on platelets; fixed platelets, two subjects", "value": "binds at a higher level on fixed platelets"}, {"measurement": "binding to FcγRIIa on non-fixed platelets versus commercially available antibody FLI8.26", "setting": "FcγRIIa on platelets; non-fixed platelets, two subjects", "value": "binds to a lesser extent than the commercially available antibody"}]}
{"molecule": "B3", "values": [{"measurement": "binding result", "setting": "[5]", "value": "binds"}, {"measurement": "binding result", "setting": "[6]", "value": "binds"}]}
